From the supplement of paper PMC5998384

Legend:
HeLa Kyoto [1] = assay: solubility in G1/S (NP-40 vs SDS abundance) (log2 ratio); higher = more soluble; settings: cell cycle stage: G1/S
HeLa Kyoto [2] = assay: melting temperature (median over replicates), in situ; higher = more thermally stable
HeLa Kyoto [3] = assay: solubility change mitosis vs G1/S (difference of NP-40 vs SDS log2 ratios) (log2 ratio difference); higher = more soluble in mitosis
HeLa Kyoto [4] = assay: thermal stability score vs G1/S (z-score of summed log2 fold changes over temperatures); higher = more thermally stable than in G1/S
[5] = cell cycle stage: early G1 (4.5 h after nocodazole release)
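Wherever melting temperature (median over replicates), in situ is given: HeLa Kyoto cells synchronized by double thymidine or nocodazole block, proteins quantified by TMT10plex mass spectrometry, three independent biological replicates.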
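Wherever solubility change mitosis vs G1/S (difference of NP-40 vs SDS log2 ratios) is given: synchronized HeLa Kyoto cells (double thymidine block for G1/S, nocodazole release for mitosis), protein amounts in NP-40 versus SDS lysates quantified by mass spectrometry, three biological replicates.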
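Wherever solubility in G1/S (NP-40 vs SDS abundance) is given: HeLa Kyoto cells arrested at G1/S by double thymidine block, proteins quantified by TMT10plex mass spectrometry in mild NP-40 versus SDS extracts, three biological replicates.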
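Wherever thermal stability score vs G1/S (z-score of summed log2 fold changes over temperatures) is given: synchronized HeLa Kyoto cells, proteins quantified by TMT10plex mass spectrometry, three biological replicates, mitosis taken 0.5 h after nocodazole release, G1/S directly after double thymidine block.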

Chain of PELP1 (chain, as listed by the source): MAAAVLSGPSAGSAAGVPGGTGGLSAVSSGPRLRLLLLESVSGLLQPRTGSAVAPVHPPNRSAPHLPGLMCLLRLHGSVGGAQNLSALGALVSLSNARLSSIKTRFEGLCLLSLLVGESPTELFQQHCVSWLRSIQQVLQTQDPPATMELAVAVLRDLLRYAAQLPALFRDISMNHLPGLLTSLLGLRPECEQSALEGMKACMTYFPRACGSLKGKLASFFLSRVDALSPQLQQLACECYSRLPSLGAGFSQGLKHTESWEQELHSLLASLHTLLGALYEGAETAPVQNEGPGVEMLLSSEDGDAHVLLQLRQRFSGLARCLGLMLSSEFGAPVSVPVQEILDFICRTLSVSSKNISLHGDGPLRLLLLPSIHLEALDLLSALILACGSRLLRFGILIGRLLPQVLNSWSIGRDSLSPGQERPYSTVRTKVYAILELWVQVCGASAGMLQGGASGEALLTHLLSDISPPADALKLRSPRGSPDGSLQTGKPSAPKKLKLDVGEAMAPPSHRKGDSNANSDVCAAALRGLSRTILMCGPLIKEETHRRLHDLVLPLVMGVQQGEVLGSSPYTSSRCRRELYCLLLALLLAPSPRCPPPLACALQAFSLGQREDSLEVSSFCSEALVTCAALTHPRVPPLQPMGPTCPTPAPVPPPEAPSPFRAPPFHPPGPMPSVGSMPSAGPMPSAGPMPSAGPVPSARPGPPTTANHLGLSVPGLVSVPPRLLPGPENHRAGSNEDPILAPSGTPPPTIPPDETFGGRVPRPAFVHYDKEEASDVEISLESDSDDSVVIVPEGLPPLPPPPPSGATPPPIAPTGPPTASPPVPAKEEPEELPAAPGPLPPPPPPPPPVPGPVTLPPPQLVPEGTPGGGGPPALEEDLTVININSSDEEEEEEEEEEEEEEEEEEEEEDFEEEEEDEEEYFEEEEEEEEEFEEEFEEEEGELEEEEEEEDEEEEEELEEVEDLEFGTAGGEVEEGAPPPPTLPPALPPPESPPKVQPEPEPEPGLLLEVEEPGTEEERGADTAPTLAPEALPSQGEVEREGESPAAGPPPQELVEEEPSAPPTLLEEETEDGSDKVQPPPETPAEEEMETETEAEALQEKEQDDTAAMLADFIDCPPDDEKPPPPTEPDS

| Substance | solubility in G1/S (log2) (HeLa Kyoto [1]) | melting temperature (HeLa Kyoto [2]; cell cycle stage: G1/S) [°C] | melting temperature (HeLa Kyoto [2]; cell cycle stage: mitosis) [°C] | solubility change mitosis (log2) (HeLa Kyoto [3]) | thermal stability score (HeLa Kyoto [4]; [5]) | thermal stability score (HeLa Kyoto [4]; cell cycle stage: mitosis) |
| --- | --- | --- | --- | --- | --- | --- |
| MDYRRLLMSRVVPGQFDDADSSDSENRDLKTVKEKDDILFEDLQDNVNENGEGEIEDEEEEGYDDDDDDWDWDEGVGKLAKGYVWNGGSNPQANRQTSDSSSAKMSTPADKVLRKFENKINLDKLNVTDSVINKVTEKSRQKEADMYRIKDKADRATVEQVLDPRTRMILFKMLTRGIITEINGCISTGKEANVYHASTANGESRAIKIYKTSILVFKDRDKYVSGEFRFRHGYCKGNPRKMVKTWAEKEMRNLIRLNTAEIPCPEPIMLRSHVLVMSFIGKDDMPAPLLKNVQLSESKARELYLQVIQYMRRMYQDARLVHADLSEFNMLYHGGGVYIIDVSQSVEHDHPHALEFLRKDCANVNDFFMRHSVAVMTVRELFEFVTDPSITHENMDAYLSKAMEIASQRTKEERSSQDHVDEEVFKRAYIPRTLNEVKNYERDMDIIMKLKEEDMAMNAQQDNILYQTVTGLKKDLSGVQKVPALLENQVEERTCSDSEDIGSSECSDTDSEEQGDHARPKKHTTDPDIDKKERKKMVKEAQREKRKNKIPKHVKKRKEKTAKTKKGK [RIOK1] | -0.18 | 52.3 | 54.8 | 0.0777 | 1.87 | 1.28 |
| MPGMVLFGRRWAIASDDLVFPGFFELVVRVLWWIGILTLYLMHRGKLDCAGGALLSSYLIVLMILLAVVICTVSAIMCVSMRGTICNPGPRKSMSKLLYIRLALFFPEMVWASLGAAWVADGVQCDRTVVNGIIATVVVSWIIIAATVVSIIIVFDPLGGKMAPYSSAGPSHLDSHDSSQLLNGLKTAATSVWETRIKLLCCCIGKDDHTRVAFSSTAELFSTYFSDTDLVPSDIAAGLALLHQQQDNIRNNQEPAQVVCHAPGSSQEADLDAELENCHHYMQFAAAAYGWPLYIYRNPLTGLCRIGGDCCRSRTTDYDLVGGDQLNCHFGSILHTTGLQYRDFIHVSFHDKVYELPFLVALDHRKESVVVAVRGTMSLQDVLTDLSAESEVLDVECEVQDRLAHKGISQAARYVYQRLINDGILSQAFSIAPEYRLVIVGHSLGGGAAALLATMLRAAYPQVRCYAFSPPRGLWSKALQEYSQSFIVSLVLGKDVIPRLSVTNLEDLKRRILRVVAHCNKPKYKILLHGLWYELFGGNPNNLPTELDGGDQEVLTQPLLGEQSLLTRWSPAYSFSSDSPLDSSPKYPPLYPPGRIIHLQEEGASGRFGCCSAAHYSAKWSHEAEFSKILIGPKMLTDHMPDILMRALDSVVSDRAACVSCPAQGVSSVDVA [DAGLB] | -0.195 | 54.6 | 53.1 | -0.129 | -0.332 | -1.16 |
| MTARGLALGLLLLLLCPAQVFSQSCVWYGECGIAYGDKRYNCEYSGPPKPLPKDGYDLVQELCPGFFFGNVSLCCDVRQLQTLKDNLQLPLQFLSRCPSCFYNLLNLFCELTCSPRQSQFLNVTATEDYVDPVTNQTKTNVKELQYYVGQSFANAMYNACRDVEAPSSNDKALGLLCGKDADACNATNWIEYMFNKDNGQAPFTITPVFSDFPVHGMEPMNNATKGCDESVDEVTAPCSCQDCSIVCGPKPQPPPPPAPWTILGLDAMYVIMWITYMAFLLVFFGAFFAVWCYRKRYFVSEYTPIDSNIAFSVNASDKGEASCCDPVSAAFEGCLRRLFTRWGSFCVRNPGCVIFFSLVFITACSSGLVFVRVTTNPVDLWSAPSSQARLEKEYFDQHFGPFFRTEQLIIRAPLTDKHIYQPYPSGADVPFGPPLDIQILHQVLDLQIAIENITASYDNETVTLQDICLAPLSPYNTNCTILSVLNYFQNSHSVLDHKKGDDFFVYADYHTHFLYCVRAPASLNDTSLLHDPCLGTFGGPVFPWLVLGGYDDQNYNNATALVITFPVNNYYNDTEKLQRAQAWEKEFINFVKNYKNPNLTISFTAERSIEDELNRESDSDVFTVVISYAIMFLYISLALGHMKSCRRLLVDSKVSLGIAGILIVLSSVACSLGVFSYIGLPLTLIVIEVIPFLVLAVGVDNIFILVQAYQRDERLQGETLDQQLGRVLGEVAPSMFLSSFSETVAFFLGALSVMPAVHTFSLFAGLAVFIDFLLQITCFVSLLGLDIKRQEKNRLDIFCCVRGAEDGTSVQASESCLFRFFKNSYSPLLLKDWMRPIVIAIFVGVLSFSIAVLNKVDIGLDQSLSMPDDSYMVDYFKSISQYLHAGPPVYFVLEEGHDYTSSKGQNMVCGGMGCNNDSLVQQIFNAAQLDNYTRIGFAPSSWIDDYFDWVKPQSSCCRVDNITDQFCNASVVDPACVRCRPLTPEGKQRPQGGDFMRFLPMFLSDNPNPKCGKGGHAAYSSAVNILLGHGTRVGATYFMTYHTVLQTSADFIDALKKARLIASNVTETMGINGSAYRVFPYSVFYVFYEQYLTIIDDTIFNLGVSLGAIFLVTMVLLGCELWSAVIMCATIAMVLVNMFGVMWLWGISLNAVSLVNLVMSCGISVEFCSHITRAFTVSMKGSRVERAEEALAHMGSSVFSGITLTKFGGIVVLAFAKSQIFQIFYFRMYLAMVLLGATHGLIFLPVLLSYIGPSVNKAKSCATEERYKGTERERLLNF [NPC1] | -0.0136 | 58.3 | 56.1 | -0.0644 | -3.38 | -3.22 |
| MMRFMLLFSRQGKLRLQKWYLATSDKERKKMVRELMQVVLARKPKMCSFLEWRDLKVVYKRYASLYFCCAIEGQDNELITLELIHRYVELLDKYFGSVCELDIIFNFEKAYFILDEFLMGGDVQDTSKKSVLKAIEQADLLQEEDESPRSVLEEMGLA [AP1S1] | -0.154 | 53 | – | -0.0672 | -1.3 | -0.738 |
| MVKIVTVKTQAYQDQKPGTSGLRKRVKVFQSSANYAENFIQSIISTVEPAQRQEATLVVGGDGRFYMKEAIQLIARIAAANGIGRLVIGQNGILSTPAVSCIIRKIKAIGGIILTASHNPGGPNGDFGIKFNISNGGPAPEAITDKIFQISKTIEEYAVCPDLKVDLGVLGKQQFDLENKFKPFTVEIVDSVEAYATMLRSIFDFSALKELLSGPNRLKIRIDAMHGVVGPYVKKILCEELGAPANSAVNCVPLEDFGGHHPDPNLTYAADLVETMKSGEHDFGAAFDGDGDRNMILGKHGFFVNPSDSVAVIAANIFSIPYFQQTGVRGFARSMPTSGALDRVASATKIALYETPTGWKFFGNLMDASKLSLCGEESFGTGSDHIREKDGLWAVLAWLSILATRKQSVEDILKDHWQKYGRNFFTRYDYEEVEAEGANKMMKDLEALMFDRSFVGKQFSANDKVYTVEKADNFEYSDPVDGSISRNQGLRLIFTDGSRIVFRLSGTGSAGATIRLYIDSYEKDVAKINQDPQVMLAPLISIALKVSQLQERTGRTAPTVIT [PGM1] | 0.266 | 57.6 | 58.3 | -0.0698 | -0.26 | 0.494 |
| MVLLRVLILLLSWAAGMGGQYGNPLNKYIRHYEGLSYNVDSLHQKHQRAKRAVSHEDQFLRLDFHAHGRHFNLRMKRDTSLFSDEFKVETSNKVLDYDTSHIYTGHIYGEEGSFSHGSVIDGRFEGFIQTRGGTFYVEPAERYIKDRTLPFHSVIYHEDDINYPHKYGPQGGCADHSVFERMRKYQMTGVEEVTQIPQEEHAANGPELLRKKRTTSAEKNTCQLYIQTDHLFFKYYGTREAVIAQISSHVKAIDTIYQTTDFSGIRNISFMVKRIRINTTADEKDPTNPFRFPNIGVEKFLELNSEQNHDDYCLAYVFTDRDFDDGVLGLAWVGAPSGSSGGICEKSKLYSDGKKKSLNTGIITVQNYGSHVPPKVSHITFAHEVGHNFGSPHDSGTECTPGESKNLGQKENGNYIMYARATSGDKLNNNKFSLCSIRNISQVLEKKRNNCFVESGQPICGNGMVEQGEECDCGYSDQCKDECCFDANQPEGRKCKLKPGKQCSPSQGPCCTAQCAFKSKSEKCRDDSDCAREGICNGFTALCPASDPKPNFTDCNRHTQVCINGQCAGSICEKYGLEECTCASSDGKDDKELCHVCCMKKMDPSTCASTGSVQWSRHFSGRTITLQPGSPCNDFRGYCDVFMRCRLVDADGPLARLKKAIFSPELYENIAEWIVAHWWAVLLMGIALIMLMAGFIKICSVHTPSSNPKLPPPKPLPGTLKRRRPPQPIQQPQRQRPRESYQMGHMRR [ADAM10] | -0.0721 | 53.3 | 53.9 | -0.0492 | 0.749 | 1.37 |
| MNWELLLWLLVLCALLLLLVQLLRFLRADGDLTLLWAEWQGRRPEWELTDMVVWVTGASSGIGEELAYQLSKLGVSLVLSARRVHELERVKRRCLENGNLKEKDILVLPLDLTDTGSHEAATKAVLQEFGRIDILVNNGGMSQRSLCMDTSLDVYRKLIELNYLGTVSLTKCVLPHMIERKQGKIVTVNSILGIISVPLSIGYCASKHALRGFFNGLRTELATYPGIIVSNICPGPVQSNIVENSLAGEVTKTIGNNGDQSHKMTTSRCVRLMLISMANDLKEVWISEQPFLLVTYLWQYMPTWAWWITNKMGKKRIENFKSGVDADSSYFKIFKTKHD [DHRS7] | -0.297 | 56.6 | 56.6 | -0.0912 | -1.54 | -1.34 |
| PELP1 | -1.2 | 55.2 | 53.8 | 0.451 | -1.93 | -5.97 |
| MSRPSSVSPRQPAPGGGGGGGPSPCGPGGGGRAKGLKDIRIDEEVKIAVNIALERFRYGDQREMEFPSSLTSTERAFIHRLSQSLGLVSKSKGKGANRYLTVKKKDGSETAHAMMTCNLTHNTKHAVRSLIQRFPVTNKERTELLPKTERGNVFAVEAENREMSKTSGRLNNGIPQIPVKRGESEFDSFRQSLPVFEKQEEIVKIIKENKVVLIVGETGSGKTTQIPQFLLDDCFKNGIPCRIFCTQPRRLAAIAVAERVAAERRERIGQTIGYQIRLESRVSPKTLLTFCTNGVLLRTLMAGDSTLSTVTHVIVDEVHERDRFSDFLLTKLRDLLQKHPTLKLILSSAALDVNLFIRYFGSCPVIYIQGRPFEVKEMFLEDILRTTGYTNKEMLKYKKEKQQEEKQQTTLTEWYSAQENSFKPESQRQRTVLNVTDEYDLLDDGGDAVFSQLTEKDVNCLEPWLIKEMDACLSDIWLHKDIDAFAQVFHLILTENVSVDYRHSETSATALMVAAGRGFASQVEQLISMGANVHSKASNGWMALDWAKHFGQTEIVDLLESYSATLEFGNLDESSLVQTNGSDLSAEDRELLKAYHHSFDDEKVDLDLIMHLLYNICHSCDAGAVLIFLPGYDEIVGLRDRILFDDKRFADSTHRYQVFMLHSNMQTSDQKKVLKNPPAGVRKIILSTNIAETSITVNDVVFVIDSGKVKEKSFDALNFVTMLKMVWISKASAIQRKGRAGRCRPGICFRLFSRLRFQNMLEFQTPELLRMPLQELCLHTKLLAPVNCPIADFLMKAPEPPPALIVRNAVQMLKTIDAMDTWEDLTELGYHLADLPVEPHLGKMVLCAVVLKCLDPILTIACTLAYRDPFVLPTQASQKRAAMLCRKRFTAGAFSDHMALLRAFQAWQKARSDGWERAFCEKNFLSQATMEIIIGMRTQLLGQLRASGFVRARGGGDIRDVNTNSENWAVVKAALVAGMYPNLVHVDRENLVLTGPKEKKVRFHPASVLSQPQYKKIPPANGQAAAIKALPTDWLIYDEMTRAHRIANIRCCSAVTPVTILVFCGPARLASNALQEPSSFRVDGIPNDSSDSEMEDKTTANLAALKLDEWLHFTLEPEAASLLLQLRQKWHSLFLRRMRAPSKPWSQVDEATIRAIIAVLSTEEQSAGLQQPSGIGQRPRPMSSEELPLASSWRSNNSRKSSADTEFSDECTTAERVLMKSPSPALHPPQKYKDRGILHPKRGTEDRSDQSSLKSTDSSSYPSPCASPSPPSSGKGSKSPSPRPNMPVRYFIMKSSNLRNLEISQQKGIWSTTPSNERKLNRAFWESSIVYLVFSVQGSGHFQGFSRMSSEIGREKSQDWGSAGLGGVFKVEWIRKESLPFQFAHHLLNPWNDNKKVQISRDGQELEPLVGEQLLQLWERLPLGEKNTTD [YTHDC2] | -0.57 | 50.2 | 50 | 0.163 | -0.356 | 0.243 |
